B1: HEEH_KT_rd6_3632 (parent)
chain: DAEELIELVERALKEGREIILLGVRITSEEAGKWFIEWIRRFL

Variants of: B1
Assay: folding stability dG (cDNA display proteolysis); higher = more stable
Details: PBS, room temperature

Q: Which “folding stability dG” value does the source give for DAEELIELVERALKEGREIILLGVRITSEEAGKWFIEWIYRFL [R40Y] here?
A: The value was 3.69 kcal/mol.

Q: Which “folding stability dG” value does the source give for DAEELIELVERALKEGREIILLGVRITSEEAGKWFIEWIHRFL [R40H] here?
A: The value was 3.32 kcal/mol.

Q: Which “folding stability dG” value does the source give for DAEELIELVERALKEGREIILLGVRITSEEAGKWFIEWIDRFL [R40D] here?
A: Its value is 2.87 kcal/mol.

Q: For DAEELIELVERALKEGREIILLGVRITSEEAGKWFIEWIKRFL [R40K], which “folding stability dG” value is on record?
A: The value was 3.69 kcal/mol.

Q: Which “folding stability dG” value does the source give for DAEELIELVERALKEGREIILLGVRITSEEAGKWFIEWIMRFL [R40M] here?
A: The value was 3.89 kcal/mol.

Q: For DAEELIELVERALKEGREIILLGVRITSEEAGKWFIEWICRFL [R40C], which “folding stability dG” value is on record?
A: Its value is 4.03 kcal/mol.

Q: With DAEELIELVERALKEGRECILLGVRITSEEAGKWFIEWIRRFL [I19C] as the variant, how does the “folding stability dG” value read?
A: The value was 4.54 kcal/mol.

Q: Which “folding stability dG” value does the source give for DAEELIELVERALKEGREEILLGVRITSEEAGKWFIEWIRRFL [I19E] here?
A: The value was 2.63 kcal/mol.

Q: For DAEELIELVERALKEGREDILLGVRITSEEAGKWFIEWIRRFL [I19D], which “folding stability dG” value is on record?
A: The value was 2.66 kcal/mol.

Q: For DAEELIELVERALKEGREGILLGVRITSEEAGKWFIEWIRRFL [I19G], which “folding stability dG” value is on record?
A: The value was 2.96 kcal/mol.

Q: For DAEELIELVERALKEGREIILLGVRITSEEAGKWFIEWIRREL [F42E], which “folding stability dG” value is on record?
A: Its value is 2.91 kcal/mol.

Q: With DAEELIELVERALKEGREIILLGVRITSEEAGKWFIEWIRRNL [F42N] as the variant, how does the “folding stability dG” value read?
A: Its value is 3.19 kcal/mol.

Q: For DAEELIELVERALKEGREIILLGVRITSEEAGKWFIEWIRRGL [F42G], which “folding stability dG” value is on record?
A: Its value is 3.06 kcal/mol.

Q: Which “folding stability dG” value does the source give for DAEELIELVERALKEGREIILLGVRITSEEAGKWFIEWIRRRL [F42R] here?
A: The value was 3.29 kcal/mol.

Q: With DAEELIELVERALKEGREIILLGVRITSEEAGKWFIEWIRRIL [F42I] as the variant, how does the “folding stability dG” value read?
A: The value was 3.67 kcal/mol.

Q: For DAEELIELVERALKEGREIILLGVRITSEEAGKWFIEWIRRAL [F42A], which “folding stability dG” value is on record?
A: Its value is 3.21 kcal/mol.

Q: For DAEELIELVERAKKEGREIILLGVRITSEEAGKWFIEWIRRFL [L13K], which “folding stability dG” value is on record?
A: Its value is 3.07 kcal/mol.

Q: For DAEELIELVERAAKEGREIILLGVRITSEEAGKWFIEWIRRFL [L13A], which “folding stability dG” value is on record?
A: The value was 3.14 kcal/mol.

Q: Which “folding stability dG” value does the source give for DAEELIELVERAWKEGREIILLGVRITSEEAGKWFIEWIRRFL [L13W] here?
A: Its value is 3.43 kcal/mol.

Q: With DAEELIELVERALKEGRSIILLGVRITSEEAGKWFIEWIRRFL [E18S] as the variant, how does the “folding stability dG” value read?
A: Its value is 3.83 kcal/mol.

Q: Which “folding stability dG” value does the source give for DAEELIELVERALKEGRGIILLGVRITSEEAGKWFIEWIRRFL [E18G] here?
A: Its value is 3.58 kcal/mol.

Q: Which “folding stability dG” value does the source give for DAEELIELVERALKEGREIILAGVRITSEEAGKWFIEWIRRFL [L22A] here?
A: The value was 3.2 kcal/mol.

Q: For DAEELIELVERALKEGREIILRGVRITSEEAGKWFIEWIRRFL [L22R], which “folding stability dG” value is on record?
A: The value was 3.31 kcal/mol.

Q: With DAEELIELVERALKEGREIILVGVRITSEEAGKWFIEWIRRFL [L22V] as the variant, how does the “folding stability dG” value read?
A: Its value is 3.3 kcal/mol.

Q: With DAEELIELVERALKEGREIILMGVRITSEEAGKWFIEWIRRFL [L22M] as the variant, how does the “folding stability dG” value read?
A: The value was 3.53 kcal/mol.

Q: For DAEELIELVERALKEGREIILLGVRITSEEAGSWFIEWIRRFL [K33S], which “folding stability dG” value is on record?
A: Its value is 3.39 kcal/mol.

Q: With DAEELIELVERALKEGREIILLGVRITSEEAGYWFIEWIRRFL [K33Y] as the variant, how does the “folding stability dG” value read?
A: Its value is 3.61 kcal/mol.

Q: For DAEELIELVERALKEGREITLLGVRITSEEAGKWFIEWIRRFL [I20T], which “folding stability dG” value is on record?
A: Its value is 3.73 kcal/mol.

Q: With DAEELIELVERALKEGREISLLGVRITSEEAGKWFIEWIRRFL [I20S] as the variant, how does the “folding stability dG” value read?
A: Its value is 3.18 kcal/mol.

Q: Which “folding stability dG” value does the source give for DAEELIELVERALKEGREINLLGVRITSEEAGKWFIEWIRRFL [I20N] here?
A: Its value is 3.08 kcal/mol.

Q: With DAEELIELVERALKEGREIELLGVRITSEEAGKWFIEWIRRFL [I20E] as the variant, how does the “folding stability dG” value read?
A: The value was 3.32 kcal/mol.

Q: With DAEELIELVERALKEGREIIDLGVRITSEEAGKWFIEWIRRFL [L21D] as the variant, how does the “folding stability dG” value read?
A: Its value is 2.71 kcal/mol.

Q: For DAEELIELVERALKEGREIIWLGVRITSEEAGKWFIEWIRRFL [L21W], which “folding stability dG” value is on record?
A: Its value is 3.33 kcal/mol.

Q: For DAEELIELVERVLKEGREIILLGVRITSEEAGKWFIEWIRRFL [A12V], which “folding stability dG” value is on record?
A: The value was 3.55 kcal/mol.

Q: Which “folding stability dG” value does the source give for DAEELIELVERGLKEGREIILLGVRITSEEAGKWFIEWIRRFL [A12G] here?
A: Its value is 3.21 kcal/mol.

Q: Which “folding stability dG” value does the source give for DAYELIELVERALKEGREIILLGVRITSEEAGKWFIEWIRRFL [E3Y] here?
A: The value was 4.02 kcal/mol.

Q: With DHEELIELVERALKEGREIILLGVRITSEEAGKWFIEWIRRFL [A2H] as the variant, how does the “folding stability dG” value read?
A: The value was 3.66 kcal/mol.

Q: With DAEELIELVERALKEGREIILLGVRITSEEQGKWFIEWIRRFL [A31Q] as the variant, how does the “folding stability dG” value read?
A: Its value is 3.99 kcal/mol.

Q: With DAEELIELVERALKEGREIILLGVRITSEEGGKWFIEWIRRFL [A31G] as the variant, how does the “folding stability dG” value read?
A: The value was 3.71 kcal/mol.

Q: With DAEELIELVERALKEGREIILLGHRITSEEAGKWFIEWIRRFL [V24H] as the variant, how does the “folding stability dG” value read?
A: The value was 3.42 kcal/mol.

Q: With DAEELIELVERALKEGREIILLGVRITSEEAGKWFIYWIRRFL [E37Y] as the variant, how does the “folding stability dG” value read?
A: The value was 3.92 kcal/mol.

Q: Which “folding stability dG” value does the source give for DAEELIELVERALKEGREIILLGVRITSEEAGKWFIHWIRRFL [E37H] here?
A: Its value is 3.46 kcal/mol.

Q: With DAEELIELVERALKEGREIILLGVRITSEEAGKWFSEWIRRFL [I36S] as the variant, how does the “folding stability dG” value read?
A: Its value is 3.02 kcal/mol.

Q: Which “folding stability dG” value does the source give for DAEELIELVERALKEGREIILLGVRITSEEAGKWFYEWIRRFL [I36Y] here?
A: The value was 3.46 kcal/mol.

Q: Which “folding stability dG” value does the source give for DAEELIELVERALKEGREIILLGVRITSEEAGKWFGEWIRRFL [I36G] here?
A: The value was 2.92 kcal/mol.

Q: Which “folding stability dG” value does the source give for DAEELIELVERALKEGREIILLGVRITSEEAGKWFFEWIRRFL [I36F] here?
A: The value was 3.44 kcal/mol.

Q: With DAEELIELVERALKEGREIILLGVRITSEEASKWFIEWIRRFL [G32S] as the variant, how does the “folding stability dG” value read?
A: The value was 3.39 kcal/mol.

Q: Which “folding stability dG” value does the source give for DAEELIELVERALKEGREIILLGVRITSEEAQKWFIEWIRRFL [G32Q] here?
A: The value was 3.43 kcal/mol.

Q: Which “folding stability dG” value does the source give for DAEELIELVERALKEGREIILLGVRITSEEARKWFIEWIRRFL [G32R] here?
A: The value was 3.72 kcal/mol.

Q: Which “folding stability dG” value does the source give for DAEELIELVERALKEGREIILLGVRITSEEAWKWFIEWIRRFL [G32W] here?
A: Its value is 4.07 kcal/mol.

Q: With DAEELIELVERALKEGREIILLGVRITSEEAGKWFIENIRRFL [W38N] as the variant, how does the “folding stability dG” value read?
A: The value was 2.8 kcal/mol.

Q: Which “folding stability dG” value does the source give for DAEELIELVERALKEGREIILLGVRITSEEAGKWFIEGIRRFL [W38G] here?
A: The value was 2.34 kcal/mol.

Q: For DAEELIELVERALKEGREIILLGVRITSEEAGKWFIEAIRRFL [W38A], which “folding stability dG” value is on record?
A: Its value is 2.95 kcal/mol.

Q: Which “folding stability dG” value does the source give for DAEELIELVERALKEGGEIILLGVRITSEEAGKWFIEWIRRFL [R17G] here?
A: Its value is 3.3 kcal/mol.

Q: For DAEELIELVERALKEGREIILLGVRIMSEEAGKWFIEWIRRFL [T27M], which “folding stability dG” value is on record?
A: The value was 3.88 kcal/mol.

Q: With DAEELIELVERALKEGREIILLGVRIVSEEAGKWFIEWIRRFL [T27V] as the variant, how does the “folding stability dG” value read?
A: Its value is 3.91 kcal/mol.

Q: For DAEELIELVERALKEGREIILLGVRIWSEEAGKWFIEWIRRFL [T27W], which “folding stability dG” value is on record?
A: Its value is 3.95 kcal/mol.

Q: With DAEELIELVERALKEDREIILLGVRITSEEAGKWFIEWIRRFL [G16D] as the variant, how does the “folding stability dG” value read?
A: The value was 3.07 kcal/mol.

Q: With DAEELIELVERALKEQREIILLGVRITSEEAGKWFIEWIRRFL [G16Q] as the variant, how does the “folding stability dG” value read?
A: Its value is 3.42 kcal/mol.

— the MegaScale stability set (Tsuboyama et al. 2023)
